This is an account of results in US20220267421A1 (INVOX PHARMA, published 2022).

Numbering of substitutions follows the chain as printed.

As a reminder, the Kd is the concentration at which binding is half-saturated. High values mean a looser complex, low ones a tighter complex. One may read the EC50 as the midpoint of the concentration-response curve.

The target in assay [1] is T1, human MSLN-His-Avi (human, UniProt Q13421 296-598, single biotin (BirA) in the biotinylated form).
T1 construct: Monomeric, made in HEK293-6E; Used both immobilised and in solution; also called hMSLN-His-Avi; biotinylated hMSLN-His-Avi
T1 sequence (Q13421 other isoform, or with tags, fused parts or gaps): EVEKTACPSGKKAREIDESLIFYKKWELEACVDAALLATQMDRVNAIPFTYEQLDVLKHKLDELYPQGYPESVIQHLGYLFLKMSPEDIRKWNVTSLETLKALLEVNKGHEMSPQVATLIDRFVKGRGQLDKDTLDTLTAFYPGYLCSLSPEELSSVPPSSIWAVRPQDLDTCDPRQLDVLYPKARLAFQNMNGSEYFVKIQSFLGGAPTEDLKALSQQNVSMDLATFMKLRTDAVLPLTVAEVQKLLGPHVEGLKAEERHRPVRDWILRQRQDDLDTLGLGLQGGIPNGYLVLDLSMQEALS
As to the kind of experiment: SPR (Biacore), MSLN immobilised, mAb^2 injected. How it is done: (§1) Human MSLN-His-Avi was immobilised on flow cell 2 on a CM5 Series S BIAcore sensor chip (GE Healthcare, BR100530) using an amine coupling kit (GE Healthcare, BR10050) to approximately 200 response units (RU). Flow cell 1 was left blank for subtraction. HEK293-6E supernatants or purified proteins were adjusted with HBS-EP+(GE Healthcare) to approximately 50 nM anti-MSLN mAb per sample. Samples were injected over flow cell 1 and 2 for 2.5 min at 30 μl/min and then allowed to dissociate in HBS-EP buffer for 2.5 min. Regeneration was achieved by injecting 10 mM glycine pH 1.5 (GE Healthcare, BR100354) for 30 seconds at a rate of 30 μl/min. Subtracted data (flow cell 2−flow cell 1) were analysed using BIAevaluation 3.2 Software (GE Healthcare).
(§2) Binding of the selected anti-MSLN clones in mAb² format, to recombinant human and cyno MSLN-His-Avi antigen was measured by SPR using a Biacore T200 processing unit (GE Healthcare). As previously described, it was desirable to bind more strongly to immobilised antigen than to soluble antigen. To assess the binding properties of the clones, binding kinetics to immobilised MSLN antigen were determined as described in section 2.1.2 and compared to the kinetics obtained when MSLN antigens in solution bound to captured clones.

In assay [2] the target is T1, human MSLN-His-Avi. The assay is described as follows: ratio of the two SPR KD. How it is done: as §1, §2
(§3) For the capture experiments, clones in mAb² format were captured using a BIAcore sensor series S chip Protein G (GE Healthcare, 29179315). mAb² diluted in HBS-EP buffer (GE Healthcare, BR100188) containing 900 mM […] at 1 μg/ml, were injected individually on flow cell 2, 3 and 4 at 30 μl/min to achieve a response of approximately 100 RU. G1-AA/HeID1.3 was captured on flow cell 1. The recombinant human and cyno MSLN-His-Avi (section 1.1), diluted in HBS-EP buffer containing 900 mM […], were injected on flow cell 1, 2, 3 or 4 as appropriate at a concentration range of 1000 nM to 0.051 nM with 3-fold dilutions for 5 minutes at 70 μl/min and then allowed to dissociate in buffer for 5 minutes. Regeneration was achieved by injecting 10 mM glycine pH1.5 (GE Healthcare, BR100354) and surfactant P20 (GE Healthcare, BR-1000-54) for 20 seconds at a rate of 30 μl/min.

The target of assay [3] is T2, cell surface human mesothelin (MSLN) (human, UniProt Q13421 296-598).
T2 construct: whole, on cells; also called cell surface MSLN
T2 sequence (Q13421 other isoform, or with tags, fused parts or gaps limits assumed): as the sequence (Q13421 other isoform, or with tags, fused parts or gaps) above
The assay is described as follows: flow cytometry, NCI-H226 cells. The procedure:
(§4) Cells were centrifuged at 1200 rpm for 3 min and resuspended in ice cold FACS buffer made up of DPBS (Life Technologies, 14190169) and 1% BSA (Sigma-Aldrich, A7906) at 2×10⁶ cells/ml and 50 μl per well was seeded in a 96-well V-bottom plate (Costar, 3894). All mAbs tested were diluted in FACS buffer in 120 μl at a concentration range of 0.01-200 nM (4-fold dilutions). The NCI-H226 cells were then centrifuged, supernatant removed and cells resuspended in 100 μl of each mAb dilution and incubated at 4° C. for 45 min. Cells were washed twice by centrifugation with 150 μl FACS buffer, resuspended in 100 μl containing goat anti-human IgG (γ-chain specific) F(ab′)2 fragment-R-Phycoerythrin antibody (Sigma, P8047) diluted 1:1000 in FACS buffer and incubated at 4° C. for 45 min. The cells were washed once with 150 μl FACS buffer and then with 150 μl DPBS, resuspended in 150 μl DPBS containing DAPI (Biotium, 40043) at 1:10.000 and read on the BDCantoll or iQue (Intellicyt). Data was analysed using FlowJo v10 to determine the signal geometric mean for PE for live cells in each well.
(§5) Cell binding assays using OVCAR-3 cells were performed similarly to the assays described in section 2.4. The effect of the presence of soluble MSLN was tested by pre-incubating the antibodies in the presence or absence of soluble MSLN before mixing with cells and determining if the pre-incubation affected binding to MSLN on the cell surface. […] 60 μl from each well was then added to either FACS buffer alone or to FACS buffer containing 60 μl of 40 nM recombinant hMSLN (R&D systems, 3265-MS-050) (to give a final concentration of 20 nM hMSLN) and pre-incubated at room temperature for 1 hour before 100 μl was added to the cells. Bound antibody was detected using goat anti-human anti-Fcγ Alexa-Fluor 488 (Jackson Immunoresearch, 109-546-098).
(§6) The method used was exactly as described in section 3.1.4.

The target in assay [4] is T1, human MSLN-His-Avi. As to the kind of experiment: SPR (Biacore), mAb^2 captured on Protein G, MSLN in solution injected. How it is done:
as §2
as §3, with “μl/min. Subtracted data (flow cell 2−flow cell 1, flow cell 3−flow cell 1, or flow cell 4−flow cell 1) were analysed using BIAevaluation 3.2 Software (GE Healthcare) to identify binding using the model 1:1 binding, local Rmax and with refractive index (RI) constant 0.” for “μl/min.”
On the technique in general: Surface plasmon resonance follows binding to a sensor surface in real time, without labels.

Another assay has as its target T3, cynomolgus MSLN-His-Avi (cynomolgus, single biotin (BirA) in the biotinylated form).
T3 construct: Monomeric, made in HEK293-6E; also called cMSLN-His-Avi; cyno MSLN-His-Avi
T3 chain: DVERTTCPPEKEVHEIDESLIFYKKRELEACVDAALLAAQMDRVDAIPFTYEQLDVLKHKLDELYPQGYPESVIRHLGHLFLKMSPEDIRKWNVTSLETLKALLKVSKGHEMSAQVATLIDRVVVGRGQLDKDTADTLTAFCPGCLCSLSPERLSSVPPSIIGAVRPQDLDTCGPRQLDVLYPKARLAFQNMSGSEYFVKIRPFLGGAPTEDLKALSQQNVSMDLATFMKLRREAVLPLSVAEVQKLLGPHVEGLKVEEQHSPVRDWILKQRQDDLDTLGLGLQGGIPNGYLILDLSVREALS
Described as above. The procedure:
as §2
as §3, with “μl/min. Subtracted data (flow cell 2−flow cell 1, flow cell 3−flow cell 1, or flow cell 4−flow cell 1) were analysed using BIAevaluation 3.2 Software (GE Healthcare) to identify binding using the model 1:1 binding, local Rmax and with refractive index (RI) constant 0.” for “μl/min.”

Assay [5] deals with T2, cell surface human mesothelin (MSLN). As to the kind of experiment: flow cytometry, NCI-H226 cells + 20 nM soluble MSLN. The procedure: as §4, §5, §6
Background: A flow cytometer gives signals particle by particle.

B1: FS22-053-008-AA/FS28-256 (bispecific antibody, human IgG1, kappa, L234A L235A, V domains shown)
VH: EVQLLESGGGLVQPGGSLRLSCAASGFTFTNTYMSWVRQAPGKGLEWVSNISPTYSTTNYADSVKGRFTISRDNSKNTLYLQMNSLRAEDTAVYYCARYNSYQGGLDYWGQGTLVTVSS
VL: EIVLTQSPGTLSLSPGERATLSCRASQSVSSSYLAWYQQKPGQAPRLLIYGASSRATGIPDRFSGSGSGTDFTLTISRLEPEDFAVYYCQQSYYYPITFGQGTKVEIKR
With B1, the values for the dissociation constant (Kd) in the assay with human MSLN-His-Avi [1], in the assay with human MSLN-His-Avi [4] and in the assay with cynomolgus MSLN-His-Avi were 23.7 nM, 889 nM and 738 nM, respectively. Besides, the “Ratio of KD in solution/immobilised for human MSLN-His-Avi” value (“Ratio of KD in solution/immobilised” for short) with human MSLN-His-Avi [2] was determined as 37.5. Besides, the EC50 in assay [3] was found to be 15.8 nM; in assay [5], 39.4 nM. In addition, the results for the “Emax (MFI)” value in assay [3] and in assay [5] were 276000 MFI and 351000 MFI, respectively.

B2: FS22-053-008-AA/FS28-256-026 mAb^2 (bispecific antibody, human IgG1, kappa, L234A L235A, V domains shown)
VH: B1 VH with N31Q, S101A, G104I
VL: B1 VL with S92A, Y93L, Y94G, I97H
Consider B2, for which the Kd in the assay with human MSLN-His-Avi [1] amounted to 3.2 nM; with human MSLN-His-Avi [4], 62.3 nM; with cynomolgus MSLN-His-Avi, 33.2 nM. Moreover, the “Ratio of KD in solution/immobilised” value in the assay with human MSLN-His-Avi [2] was found to be 19.5. Moreover, the EC50 is 2.43 nM in assay [3] and 4.59 nM in assay [5]. In addition, the “Emax (MFI)” value is 741000 MFI in assay [3] and 715000 MFI in assay [5].

B3: FS22-053-008-AA/FS28-256-027 mAb^2 (bispecific antibody, human IgG1, kappa, L234A L235A, V domains shown)
VH: B1 VH with N31H, S75N, S101A, Q103H, G104A, G105A
VL: B1 VL with S92T, Y93V, Y94P, I97Y
For the molecule B3, the Kd with human MSLN-His-Avi [1] is 1.1 nM; with human MSLN-His-Avi [4], 6 nM; with cynomolgus MSLN-His-Avi, 0.7 nM. In the assay with human MSLN-His-Avi [2], the “Ratio of KD in solution/immobilised” value turned out to be 5.3. Also, the EC50 came to 3.93 nM in assay [3] and 21.8 nM in assay [5]. In addition, the “Emax (MFI)” value in assay [3] is 987000 MFI; in assay [5] it was 964000 MFI.

B4: FS22-053-008-AA/FS28-256-023 mAb^2 (bispecific antibody, human IgG1, kappa, L234A L235A, V domains shown)
VH: B1 VH with N31Q, S101A, G104I
VL: B1 VL with S92H, Y93N, Y94Q, I97N
On to B4, for which the Kd came out at 3.3 nM in the assay with human MSLN-His-Avi [1], 68.6 nM with human MSLN-His-Avi [4] and 32.6 nM with cynomolgus MSLN-His-Avi. In the assay with human MSLN-His-Avi [2], the “Ratio of KD in solution/immobilised” value amounted to 20.8. Also, the EC50 came out at 3.29 nM in assay [3] and 3.9 nM in assay [5]. Moreover, the entries for the “Emax (MFI)” value in assay [3] and in assay [5] were 856000 MFI and 716000 MFI, respectively.

B5: FS22-053-008-AA/FS28-256-024 mAb^2 (bispecific antibody, human IgG1, kappa, L234A L235A, V domains shown)
VH: B1 VH with N31H, S75N, S101A, Q103H, G104A, G105A
VL: B1 VL with S92A, Y93L, Y94G, I97H
As to B5, the Kd with human MSLN-His-Avi [1] was 6.7 nM; with human MSLN-His-Avi [4] it was 95.4 nM; with cynomolgus MSLN-His-Avi, 56.7 nM. The “Ratio of KD in solution/immobilised” value with human MSLN-His-Avi [2] came out at 14.3. Further, the EC50 is 3.88 nM in assay [3] and 3.91 nM in assay [5]. Moreover, the “Emax (MFI)” value stood at 813000 MFI in assay [3] and 669000 MFI in assay [5].

B6: FS22-053-008-AA/FS28-256-012 mAb^2 (bispecific antibody, human IgG1, kappa, L234A L235A, V domains shown)
VH: B1 VH with N31H, S75N, S101A, Q103H, G104A, G105A
VL: B1 VL
For B6, the Kd in the assay with human MSLN-His-Avi [1] amounted to 4.1 nM; in the assay with human MSLN-His-Avi [4] it was 861 nM; in the assay with cynomolgus MSLN-His-Avi it was 717 nM. Moreover, the “Ratio of KD in solution/immobilised” value with human MSLN-His-Avi [2] was 209. Besides, the figures for the EC50 in assay [3] and in assay [5] were 8.48 nM and 4.83 nM, respectively. Besides, the entries for the “Emax (MFI)” value in assay [3] and in assay [5] were 969000 MFI and 790000 MFI, respectively.

B7: FS22-053-008-AA/FS28-256-021 mAb^2 (bispecific antibody, human IgG1, kappa, L234A L235A, V domains shown)
VH: B1 VH with N31H, S75N, S101A, Q103H, G104A, G105A
VL: B1 VL with S92H, Y93N, Y94Q, I97N
Consider B7, for which the Kd was 3.3 nM with human MSLN-His-Avi [1], 23.2 nM in the assay with human MSLN-His-Avi [4] and 16.2 nM with cynomolgus MSLN-His-Avi. Besides, the “Ratio of KD in solution/immobilised” value in the assay with human MSLN-His-Avi [2] is 7. In addition, the EC50 in assay [3] came to 3.29 nM; in assay [5], 7.65 nM. Besides, the “Emax (MFI)” value stood at 919000 MFI in assay [3] and 839000 MFI in assay [5].
